Bounds are passed on as bounds.

The Kd is the equilibrium constant for the complex coming apart. Low readings indicate tighter binding, high ones weaker binding.

The series addresses T1, PUF4 RNA-binding domain (Saccharomyces cerevisiae, UniProt P25339 537-888).
T1 sequence: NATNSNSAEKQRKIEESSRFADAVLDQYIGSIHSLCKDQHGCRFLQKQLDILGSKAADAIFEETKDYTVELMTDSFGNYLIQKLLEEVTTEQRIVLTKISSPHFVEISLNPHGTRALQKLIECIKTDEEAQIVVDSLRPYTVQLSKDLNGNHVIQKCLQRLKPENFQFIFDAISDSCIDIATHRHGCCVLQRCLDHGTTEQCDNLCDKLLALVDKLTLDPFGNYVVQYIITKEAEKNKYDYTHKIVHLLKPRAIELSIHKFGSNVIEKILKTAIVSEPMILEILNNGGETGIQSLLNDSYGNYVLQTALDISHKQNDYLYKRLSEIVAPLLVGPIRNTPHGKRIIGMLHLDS
The series can be described thus: Mg; RNA-MaP; 20 mM Na-HEPES pH 7.4, 30 mM KOAc, 0.75 mM MgCl2, 0.1% Tween-20, 5% glycerol, 0.1 mg/mL BSA, 2 mM DTT; 25 C; 0.0125-409.6 nM protein. The conditions noted are these: tags: N-His6-TEV cleaved; C-SNAP kept, Cy3B-labelled; label: tethered on chip by stalled RNA polymerase.

The molecule UCUCUUUGUAUGUUCCUCUCUU (ssRNA) [Ic_S1_P5E.1_K5.1_C5.1_H5.1_A5.1_[T6G]_[A7T]_F5.1_[T9C]_[A10C]_T5.1] had a Kd of 28.6 nM.

UCUCUUUGUACUACCCUCUCUU (ssRNA) [Ic_S1_P5E.1_K5.1_C5.1_H5.1_A5.1_[T5C]_F5.1_[T8C]_[T9C]_[A10C]_T5.1]: the equilibrium dissociation constant (Kd) was determined as 656 nM.

In the case of UCUCUUUGUAUGCAUAUCUCUU (ssRNA) [Ic_S1_P5E.1_K5.1_C5.1_H5.1_A5.1_[T6G]_[A7C]_F5.1_[T8A]_T5.1], binding was put at a Kd of 36 nM.

UCUCUUUGUACCCAUCUCUCUU (ssRNA) [Ic_S1_P5E.1_K5.1_C5.1_H5.1_A5.1_[T5C]_[T6C]_[A7C]_F5.1_[T8A]_[A10C]_T5.1] showed a Kd of 603 nM.

In the case of UCUCUUUGUAUGGUUGUCUCUU (ssRNA) [Ic_S1_P5E.1_K5.1_C5.1_H5.1_A5.1_[T6G]_[A7G]_F5.1_[A10G]_T5.1], the dissociation constant (Kd) was 717 nM.

In turn, UCUCUUUGUACCCGAUUCUCUU (ssRNA) [Ic_S1_P5E.1_K5.1_C5.1_H5.1_A5.1_[T5C]_[T6C]_[A7C]_F5.1_[T8G]_[T9A]_[A10T]_T5.1] displayed a Kd of 1050 nM.

In turn, UCUCUUUGUACAGUCCUCUCUU (ssRNA) [Ic_S1_P5E.1_K5.1_C5.1_H5.1_A5.1_[T5C]_[T6A]_[A7G]_F5.1_[T9C]_[A10C]_T5.1] had a Kd of 13.5 nM.

The molecule UCUCUUUGUAUACACUUCUCUU (ssRNA) [Ic_S1_P5E.1_K5.1_C5.1_H5.1_A5.1_[T6A]_[A7C]_F5.1_[T8A]_[T9C]_[A10T]_T5.1] showed a Kd of 69.2 nM.

UCUCUUUGUACCACCCUCUCUU (ssRNA) [Ic_S1_P5E.1_K5.1_C5.1_H5.1_A5.1_[T5C]_[T6C]_F5.1_[T8C]_[T9C]_[A10C]_T5.1] gave a Kd of 523 nM.

In the case of UCUCUUUGUAUUUGCUUCUCUU (ssRNA) [Ic_S1_P5E.1_K5.1_C5.1_H5.1_A5.1_[A7T]_F5.1_[T8G]_[T9C]_[A10T]_T5.1], binding was put at a Kd of 324 nM.

As for UCUCUUUGUACUUCCAUCUCUU (ssRNA) [Ic_S1_P5E.1_K5.1_C5.1_H5.1_A5.1_[T5C]_[A7T]_F5.1_[T8C]_[T9C]_T5.1], the affinity, expressed as Kd, was 666 nM.

Take UCUCUUUGUAUACUAGUCUCUU (ssRNA) [Ic_S1_P5E.1_K5.1_C5.1_H5.1_A5.1_[T6A]_[A7C]_F5.1_[T9A]_[A10G]_T5.1]: binding was characterised by a dissociation constant (Kd) of 0.331 nM.

As to UCUCUUUGUAUGUGGUUCUCUU (ssRNA) [Ic_S1_P5E.1_K5.1_C5.1_H5.1_A5.1_[T6G]_[A7T]_F5.1_[T8G]_[T9G]_[A10T]_T5.1], the dissociation constant (Kd) worked out at 421 nM.

In the case of UCUCUUUGUACCAUGAUCUCUU (ssRNA) [Ic_S1_P5E.1_K5.1_C5.1_H5.1_A5.1_[T5C]_[T6C]_F5.1_[T9G]_T5.1], the equilibrium dissociation constant (Kd) came out at 8.03 nM.

Take UCUCUUUGUAAUUACGUCUCUU (ssRNA) [Ic_S1_P5E.1_K5.1_C5.1_H5.1_A5.1_[T5A]_[A7T]_F5.1_[T8A]_[T9C]_[A10G]_T5.1]: the dissociation constant Kd is 613 nM.

In turn, UCUCUUUGUAAAAUUGUCUCUU (ssRNA) [Ic_S1_P5E.1_K5.1_C5.1_H5.1_A5.1_[T5A]_[T6A]_F5.1_[A10G]_T5.1] had an equilibrium dissociation constant (Kd) of 22.4 nM.

On to UCUCUUUCAAUAUAUCUCUU (ssRNA) [Ib_S1_P3E.1_K3.1_C3.1_H3.1_[G2C]_[T3A]_A3.1_F3.1_T3.1], for which the Kd was > 2300 nM.

As to UCUCUUUUAAUAUAUCUCUU (ssRNA) [Ib_S1_P3E.1_K3.1_C3.1_H3.1_[G2T]_[T3A]_A3.1_F3.1_T3.1], the dissociation constant Kd was > 2300 nM.

UCUCUUUGUAAGCUCCUCUCUU (ssRNA) [Ic_S1_P5E.1_K5.1_C5.1_H5.1_A5.1_[T5A]_[T6G]_[A7C]_F5.1_[T9C]_[A10C]_T5.1] came in with a dissociation constant Kd of 1500 nM.

For UCUCUUUGUAAAGCUCUCUCUU (ssRNA) [Ic_S1_P5E.1_K5.1_C5.1_H5.1_A5.1_[T5A]_[T6A]_[A7G]_F5.1_[T8C]_[A10C]_T5.1], the affinity, expressed as Kd, was 1270 nM.

Consider UCUCUUUGUAAAGCCAUCUCUU (ssRNA) [Ic_S1_P5E.1_K5.1_C5.1_H5.1_A5.1_[T5A]_[T6A]_[A7G]_F5.1_[T8C]_[T9C]_T5.1], for which binding was put at a Kd of 1060 nM.

In turn, UCUCUUUGUACUGCGCUCUCUU (ssRNA) [Ic_S1_P5E.1_K5.1_C5.1_H5.1_A5.1_[T5C]_[A7G]_F5.1_[T8C]_[T9G]_[A10C]_T5.1] registered an equilibrium dissociation constant (Kd) of 1380 nM.

Take UCUCUUUGUAACCCAAUCUCUU (ssRNA) [Ic_S1_P5E.1_K5.1_C5.1_H5.1_A5.1_[T5A]_[T6C]_[A7C]_F5.1_[T8C]_[T9A]_T5.1]: the equilibrium dissociation constant (Kd) was determined as 1740 nM.

UCUCUUUGUACGCCCCUCUCUU (ssRNA) [Ic_S1_P5E.1_K5.1_C5.1_H5.1_A5.1_[T5C]_[T6G]_[A7C]_F5.1_[T8C]_[T9C]_[A10C]_T5.1]: the Kd was 662 nM.

Regarding UCUCUUUUCAUAUAUCUCUU (ssRNA) [Ib_S1_P3E.1_K3.1_C3.1_H3.1_[G2T]_[T3C]_A3.1_F3.1_T3.1], the dissociation constant Kd was > 2300 nM.

On to UCUCUUUGUACAUACGUCUCUU (ssRNA) [Ic_S1_P5E.1_K5.1_C5.1_H5.1_A5.1_[T5C]_[T6A]_[A7T]_F5.1_[T8A]_[T9C]_[A10G]_T5.1], for which the Kd amounted to 11 nM.

On to UCUCUUUGUAAUCUCUUCUCUU (ssRNA) [Ic_S1_P5E.1_K5.1_C5.1_H5.1_A5.1_[T5A]_[A7C]_F5.1_[T9C]_[A10T]_T5.1], for which the Kd amounted to 440 nM.

The molecule UCUCUUUGUACAAUAAUCUCUU (ssRNA) [Ic_S1_P5E.1_K5.1_C5.1_H5.1_A5.1_[T5C]_[T6A]_F5.1_[T9A]_T5.1] registered a Kd of 1.94 nM.

For the molecule UCUCUUUGUAAAUAACUCUCUU (ssRNA) [Ic_S1_P5E.1_K5.1_C5.1_H5.1_A5.1_[T5A]_[T6A]_[A7T]_F5.1_[T8A]_[T9A]_[A10C]_T5.1], the Kd is 31.1 nM.

In the case of UCUCUUUGUAUAACGUUCUCUU (ssRNA) [Ic_S1_P5E.1_K5.1_C5.1_H5.1_A5.1_[T6A]_F5.1_[T8C]_[T9G]_[A10T]_T5.1], binding was put at a Kd of 34.4 nM.
